# Assay results from PMC4357707 (Nucleic Acids Research, 2015).
# Where two headings read alike, the source gives them in different places.
# T1: HEN1 Δ38-45 (Arabidopsis thaliana, UniProt Q9C5Q8 1-37+=G+46-942, internal_change)
# T1 sequence: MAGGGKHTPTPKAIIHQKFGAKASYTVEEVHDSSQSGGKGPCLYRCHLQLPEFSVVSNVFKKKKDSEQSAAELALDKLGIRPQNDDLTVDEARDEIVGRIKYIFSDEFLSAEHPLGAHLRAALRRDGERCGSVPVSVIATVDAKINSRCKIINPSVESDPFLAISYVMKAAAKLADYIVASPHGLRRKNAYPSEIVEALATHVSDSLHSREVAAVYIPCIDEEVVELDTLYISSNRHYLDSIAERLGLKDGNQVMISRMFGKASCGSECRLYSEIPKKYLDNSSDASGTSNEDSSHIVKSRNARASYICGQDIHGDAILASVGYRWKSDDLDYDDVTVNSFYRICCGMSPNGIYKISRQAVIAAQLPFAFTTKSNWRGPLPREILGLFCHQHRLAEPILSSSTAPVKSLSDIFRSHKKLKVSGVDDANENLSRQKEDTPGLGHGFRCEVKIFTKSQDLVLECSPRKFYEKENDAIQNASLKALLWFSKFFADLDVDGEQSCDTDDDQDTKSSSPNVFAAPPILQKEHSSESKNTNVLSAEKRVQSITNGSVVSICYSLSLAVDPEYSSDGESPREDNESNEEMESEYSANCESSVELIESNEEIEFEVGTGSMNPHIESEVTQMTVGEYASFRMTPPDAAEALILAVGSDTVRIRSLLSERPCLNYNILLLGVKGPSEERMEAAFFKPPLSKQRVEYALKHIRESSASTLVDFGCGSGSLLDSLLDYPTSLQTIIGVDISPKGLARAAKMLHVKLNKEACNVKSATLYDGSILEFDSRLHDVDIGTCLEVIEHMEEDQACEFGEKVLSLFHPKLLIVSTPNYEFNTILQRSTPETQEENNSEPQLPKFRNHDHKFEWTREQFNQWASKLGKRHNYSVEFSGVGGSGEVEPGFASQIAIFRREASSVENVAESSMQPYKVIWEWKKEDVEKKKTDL
# T2: HEN1 wt (Arabidopsis thaliana, UniProt Q9C5Q8 1-942)
# T2 sequence: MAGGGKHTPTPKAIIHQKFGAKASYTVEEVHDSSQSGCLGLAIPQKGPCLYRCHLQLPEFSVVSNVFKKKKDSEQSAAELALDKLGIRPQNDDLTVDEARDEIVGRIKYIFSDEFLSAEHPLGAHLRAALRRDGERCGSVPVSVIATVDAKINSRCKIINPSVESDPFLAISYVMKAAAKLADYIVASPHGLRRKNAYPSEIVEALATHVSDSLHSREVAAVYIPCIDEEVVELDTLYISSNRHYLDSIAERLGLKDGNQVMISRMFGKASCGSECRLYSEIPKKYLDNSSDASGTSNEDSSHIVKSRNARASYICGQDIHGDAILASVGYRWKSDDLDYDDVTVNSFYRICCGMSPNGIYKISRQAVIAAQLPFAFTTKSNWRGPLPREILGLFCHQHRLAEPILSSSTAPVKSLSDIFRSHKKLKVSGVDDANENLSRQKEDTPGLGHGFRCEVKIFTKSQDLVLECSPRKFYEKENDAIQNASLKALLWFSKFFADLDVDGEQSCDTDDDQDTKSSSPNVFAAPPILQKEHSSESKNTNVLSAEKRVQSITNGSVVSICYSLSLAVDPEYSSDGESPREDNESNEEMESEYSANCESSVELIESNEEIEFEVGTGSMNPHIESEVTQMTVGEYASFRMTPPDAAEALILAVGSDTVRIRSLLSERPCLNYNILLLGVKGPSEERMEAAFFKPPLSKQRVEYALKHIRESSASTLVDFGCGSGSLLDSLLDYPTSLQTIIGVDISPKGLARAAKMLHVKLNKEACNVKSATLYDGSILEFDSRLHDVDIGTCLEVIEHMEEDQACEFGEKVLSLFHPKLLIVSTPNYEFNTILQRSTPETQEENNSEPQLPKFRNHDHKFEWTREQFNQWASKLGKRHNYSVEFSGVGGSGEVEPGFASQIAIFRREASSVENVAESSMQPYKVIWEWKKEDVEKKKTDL
# B1: miR173/miR173* (dsRNA)
# RNA 1: UUCGCUUGCAGAGAGAAAUCAC
# RNA 2: GAUUCUCUGUGUAAGCGAAAG
# Columns and labels:
# Assay in all cases: EMSA
# [1] = molecular target: T1, HEN1 Δ38-45
# [2] = molecular target: T2, HEN1 wt
# [3] = molecular target: T1, HEN1 Δ38-45; remark: listed apart in the source
binder,measurement,setting,value
B1,Kd,[1],0.32 ± 0.04 nM
same,Kd,[2],0.43 ± 0.05 nM
same,Kd,[3],0.79 ± 0.05 nM
